These results are taken from publication PMC2132786.

What all share (test): sucrose density gradient sedimentation
Assay [1] has as its target L80P mutant hemagglutinin (X:31 strain, HA2 L80P) (influenza virus, X:31 strain) (UniProt P03437).
In assay [2] the target is S71P mutant hemagglutinin (X:31 strain, HA2 S71P) (influenza virus, X:31 strain) (UniProt P03437).
The target in assay [3] is V55P/S71P double proline mutant hemagglutinin (X:31 strain, HA2 V55P and S71P) (influenza virus, X:31 strain) (UniProt P03437).

Take “L80P mutant hemagglutinin (X:31 strain, HA2 L80P) (from UniProt P03437 17-344) (natural protein)”: in assay [1], the stoichiometry N (usually a count of units in the complex or per binding partner) is 3.
Turning to “S71P mutant hemagglutinin (X:31 strain, HA2 S71P) (from UniProt P03437 17-344) (natural protein)”, in assay [2], the stoichiometry N came out at 3.
Take “V55P/S71P double proline mutant hemagglutinin (X:31 strain, HA2 V55P and S71P) (from UniProt P03437 17-344) (natural protein)”: in assay [3], the stoichiometry N came to 3.
